The values that follow come from patent US10640547B2, “Immunotherapy against melanoma and other cancers” (IMMATICS BIOTECHNOLOGIES GMBH, priority 2016, dated 2020).

This assay has as its target HLA-A*02:01 (Homo sapiens, UniProt P04439, D140Y/D185E/D98H/E176V/E277Q/G131W/G231S/I119V/I121R/I166T/I218V/L300P/L318F/N151K/N90K/P208A/P217A/Q86G/Q94H/R138H/R169H/T345S). The assay is described as follows: MHC binding assay (UV-ligand exchange, β2m ELISA). To be noted: MHC class I binding score; binding to HLA-A*02:01 ranged by peptide exchange yield (UV-ligand exchange, β2m ELISA). The source says: Candidate peptides for T cell based therapies according to the present invention were further tested for their MHC binding capacity (affinity). The individual peptide-MHC complexes were produced by UV-ligand exchange, where a UV-sensitive peptide is cleaved upon UV-irradiation, and exchanged with the peptide of interest as analyzed. Only peptide candidates that can effectively bind and stabilize the peptide-receptive MHC molecules prevent dissociation of the MHC complexes. To determine the yield of the exchange reaction, an ELISA was performed based on the detection of the light chain (β2m) of stabilized MHC complexes. The assay was performed as generally described in Rodenko et al. (Rodenko et al., 2006).
96 well MAXISorp plates (NUNC) were coated over night with 2 ug/ml streptavidin in PBS at room temperature, washed 4× and blocked for 1 h at 37° C. in 2% BSA containing blocking buffer. Refolded HLA-A*02:01/MLA-001 monomers served as standards, covering the range of 15-500 ng/ml. Peptide-MHC monomers of the UV-exchange reaction were diluted 100 fold in blocking buffer. Samples were incubated for 1 h at 37° C., washed four times, incubated with 2 ug/ml HRP conjugated anti-β2m for 1 h at 37° C., washed again and detected with TMB solution that is stopped with […]. Absorption was measured at 450 nm. Candidate peptides that show a high exchange yield (preferably higher than 50%, most preferred higher than 75%) are generally preferred for a generation and production of antibodies or fragments thereof, and/or T cell receptors or fragments thereof, as they show sufficient avidity to the MHC molecules and prevent dissociation of the MHC complexes.
In the case of “74 (GTIPLIESL; listed as Homo sapiens) [compound 74]”, the Peptide exchange entry was “+ (>10% = +)”. Under “75 (FMYAGQLTL; listed as Homo sapiens) [compound 75]” stands “++++ (>75% = ++++)”; under “76 (QIDSIHLLL; listed as Homo sapiens) [compound 76]”, “+++ (>50 = +++)”; under “77 (SIDDVVKKL; listed as Homo sapiens) [compound 77]”, “++ (>20% = ++)”. Take “78 (ALKDLVNLI; listed as Homo sapiens) [compound 78]”: the Peptide exchange result is on record as “++++ (>75% = ++++)”. Take “79 (AVDNILLKL; listed as Homo sapiens) [compound 79]”: the Peptide exchange result was “+++ (>50 = +++)”. Under “80 (FADELSHLL; listed as Homo sapiens) [compound 80]” stands “+++ (>50 = +++)”; under “81 (FLDDGNQML; listed as Homo sapiens) [compound 81]”, “+++ (>50 = +++)”. Turning to “82 (GIDDLHISL; listed as Homo sapiens) [compound 82]”, the Peptide exchange result is recorded as “+++ (>50 = +++)”. Under “83 (GLDKVITVL; listed as Homo sapiens) [compound 83]” stands “+++ (>50 = +++)”; under “84 (GLDTILQNL; listed as Homo sapiens) [compound 84]”, “++++ (>75% = ++++)”. Under “85 (GLLDVMYQV; listed as Homo sapiens) [compound 85]” stands “++++ (>75% = ++++)”. Under “86 (HTLPHEIVVNL; listed as Homo sapiens) [compound 86]” stands “+++ (>50 = +++)”; under “87 (IIDPPLHGQLL; listed as Homo sapiens) [compound 87]”, “++ (>20% = ++)”; under “88 (ILDGIIREL; listed as Homo sapiens) [compound 88]”, “+++ (>50 = +++)”. Regarding “89 (ILDNSPAFL; listed as Homo sapiens) [compound 89]”, the Peptide exchange result is reported as “+++ (>50 = +++)”.

Consider “90 (ILDYIHNGL; listed as Homo sapiens) [compound 90]”, for which the Peptide exchange result is on record as “+++ (>50 = +++)”. The value for “91 (ILLDRLFSV; listed as Homo sapiens) [compound 91]” was “++++ (>75% = ++++)”; that for “92 (KLPGFPTQDDEV; listed as Homo sapiens) [compound 92]” was “++ (>20% = ++)”. In the case of “93 (LLAKAVQNV; listed as Homo sapiens) [compound 93]”, the Peptide exchange result is “+++ (>50 = +++)”. Under “94 (LLDAFSIKL; listed as Homo sapiens) [compound 94]” stands “+++ (>50 = +++)”; under “95 (LLDALQHEL; listed as Homo sapiens) [compound 95]”, “+++ (>50 = +++)”. The value for “96 (LLDMSLVKL; listed as Homo sapiens) [compound 96]” was “+++ (>50 = +++)”.

Turning to “97 (NLDATVTAL; listed as Homo sapiens) [compound 97]”, the Peptide exchange result is recorded as “+++ (>50 = +++)”.

Consider “98 (NLPNTNSILGV; listed as Homo sapiens) [compound 98]”, for which the Peptide exchange result is on record as “+++ (>50 = +++)”. As for “99 (NLPSELPQL; listed as Homo sapiens) [compound 99]”, the Peptide exchange entry is “+++ (>50 = +++)”. Regarding “100 (NLREILQNV; listed as Homo sapiens) [compound 100]”, the Peptide exchange result is “+++ (>50 = +++)”. With “101 (NVDENVAEL; listed as Homo sapiens) [compound 101]”, the Peptide exchange result is “++ (>20% = ++)”.

As for “102 (RLPDQFSKL; listed as Homo sapiens) [compound 102]”, the Peptide exchange result was “+++ (>50 = +++)”.

For the substance “103 (SLDAVMPHL; listed as Homo sapiens) [compound 103]”, the Peptide exchange result is recorded as “+++ (>50 = +++)”. As for “104 (SLDQIIQHL; listed as Homo sapiens) [compound 104]”, the Peptide exchange result is listed as “+++ (>50 = +++)”. Under “105 (SLKQTVVTL; listed as Homo sapiens) [compound 105]” stands “+++ (>50 = +++)”; under “106 (TLSEICEFI; listed as Homo sapiens) [compound 106]”, “++++ (>75% = ++++)”. “107 (TLVAFLQQV; listed as Homo sapiens) [compound 107]”: the Peptide exchange entry is on record as “++++ (>75% = ++++)”. As to “108 (TVIRPLPGL; listed as Homo sapiens) [compound 108]”, the Peptide exchange result was “++ (>20% = ++)”. The value for “109 (VIDDLIQKL; listed as Homo sapiens) [compound 109]” was “++ (>20% = ++)”; that for “110 (VLDTLTKVL; listed as Homo sapiens) [compound 110]” was “+++ (>50 = +++)”. Under “111 (VLDVSFNRL; listed as Homo sapiens) [compound 111]” stands “+++ (>50 = +++)”; under “112 (VLPAVLTRL; listed as Homo sapiens) [compound 112]”, “+++ (>50 = +++)”; under “113 (VLYSLVSKI; listed as Homo sapiens) [compound 113]”, “+++ (>50 = +++)”. For “114 (VVDDIVSKL; listed as Homo sapiens) [compound 114]”, the Peptide exchange result is given as “++ (>20% = ++)”. The value for “115 (YIDDVFMGL; listed as Homo sapiens) [compound 115]” was “+++ (>50 = +++)”; that for “117 (KQQASQVLV; listed as Homo sapiens) [compound 117]” was “+++ (>50 = +++)”. The value for “118 (TMIEICEKL; listed as Homo sapiens) [compound 118]” was “++++ (>75% = ++++)”. The value for “119 (SLGLGFISRV; listed as Homo sapiens) [compound 119]” was “+++ (>50 = +++)”. Consider “120 (QLMEGKVVL; listed as Homo sapiens) [compound 120]”, for which the Peptide exchange entry is “++++ (>75% = ++++)”.

Regarding “122 (YVDDFGVSV; listed as Homo sapiens) [compound 122]”, the Peptide exchange result was “+++ (>50 = +++)”. Under “123 (LLGEGIPSA; listed as Homo sapiens) [compound 123]” stands “++++ (>75% = ++++)”. Turning to “124 (FLPQKIIYL; listed as Homo sapiens) [compound 124]”, the Peptide exchange entry was “++++ (>75% = ++++)”.

Regarding “125 (YLFAFLNHL; listed as Homo sapiens) [compound 125]”, the Peptide exchange result is reported as “++++ (>75% = ++++)”. The value for “126 (SLIDFVVTC; listed as Homo sapiens) [compound 126]” was “+++ (>50 = +++)”; that for “127 (TLISDIEAVKA; listed as Homo sapiens) [compound 127]” was “+++ (>50 = +++)”; that for “129 (VLPDDLSGV; listed as Homo sapiens) [compound 129]” was “+++ (>50 = +++)”. The value for “130 (GLVDVLYTA; listed as Homo sapiens) [compound 130]” was “+++ (>50 = +++)”.
